# Values of other authors in PMC3557855.
# Legend:
# Assay in all cases: SPR
# ESL-1 = ESL-1 (UniProt Q61543)
# PSGL-1 (Homo sapiens) = PSGL-1 (Homo sapiens) (UniProt Q14242)
# GlyCAM-1 (Mus musculus) = GlyCAM-1 (Mus musculus) (UniProt Q02596)
# Chain of UniProt Q02596 (Q02596 20-151): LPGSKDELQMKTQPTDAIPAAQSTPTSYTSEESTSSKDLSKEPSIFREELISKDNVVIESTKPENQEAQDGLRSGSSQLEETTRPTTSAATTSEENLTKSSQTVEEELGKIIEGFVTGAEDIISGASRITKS
# Chain of UniProt Q61543 (Q61543 28-1141): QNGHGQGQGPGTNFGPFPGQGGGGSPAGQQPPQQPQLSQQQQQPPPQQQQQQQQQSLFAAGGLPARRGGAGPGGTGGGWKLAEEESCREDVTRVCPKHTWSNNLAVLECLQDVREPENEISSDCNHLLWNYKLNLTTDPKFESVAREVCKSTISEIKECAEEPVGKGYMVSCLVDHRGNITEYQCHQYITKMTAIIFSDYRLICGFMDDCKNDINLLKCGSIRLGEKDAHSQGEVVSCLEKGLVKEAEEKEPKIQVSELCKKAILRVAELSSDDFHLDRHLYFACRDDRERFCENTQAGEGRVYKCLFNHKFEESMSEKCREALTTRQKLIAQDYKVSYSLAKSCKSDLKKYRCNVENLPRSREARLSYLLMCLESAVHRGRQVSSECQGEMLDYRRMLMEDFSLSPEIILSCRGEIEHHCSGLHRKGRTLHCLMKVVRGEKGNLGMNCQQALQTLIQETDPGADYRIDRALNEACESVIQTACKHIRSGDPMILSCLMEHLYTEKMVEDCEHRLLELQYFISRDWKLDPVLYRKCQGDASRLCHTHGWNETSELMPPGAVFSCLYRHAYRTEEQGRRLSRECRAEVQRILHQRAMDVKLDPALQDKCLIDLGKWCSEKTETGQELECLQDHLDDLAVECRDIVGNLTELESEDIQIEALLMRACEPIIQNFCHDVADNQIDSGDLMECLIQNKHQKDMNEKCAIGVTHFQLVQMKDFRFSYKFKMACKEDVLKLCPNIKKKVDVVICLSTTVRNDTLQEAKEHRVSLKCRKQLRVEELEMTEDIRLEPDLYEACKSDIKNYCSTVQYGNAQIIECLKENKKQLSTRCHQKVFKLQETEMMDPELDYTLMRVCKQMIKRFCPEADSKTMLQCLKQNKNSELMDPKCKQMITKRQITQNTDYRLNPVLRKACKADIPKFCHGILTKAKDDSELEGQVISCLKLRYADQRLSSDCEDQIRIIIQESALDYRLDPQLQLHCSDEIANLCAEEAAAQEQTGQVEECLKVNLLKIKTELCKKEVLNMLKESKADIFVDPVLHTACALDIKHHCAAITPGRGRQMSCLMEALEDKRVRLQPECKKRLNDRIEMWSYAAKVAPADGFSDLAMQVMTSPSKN
# Chain of UniProt Q14242 (Q14242 42-320): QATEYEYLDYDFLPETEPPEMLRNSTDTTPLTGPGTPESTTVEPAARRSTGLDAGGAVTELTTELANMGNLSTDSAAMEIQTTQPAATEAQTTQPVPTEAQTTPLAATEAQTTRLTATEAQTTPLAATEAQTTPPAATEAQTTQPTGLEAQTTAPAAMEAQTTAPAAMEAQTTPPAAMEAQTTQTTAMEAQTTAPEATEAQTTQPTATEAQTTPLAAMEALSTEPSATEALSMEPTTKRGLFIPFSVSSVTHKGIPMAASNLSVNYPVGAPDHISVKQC
substance,measurement,setting,value
E-selectin (from UniProt P16581),Kd,ESL-1,62 µM
L-selectin (from UniProt P14151),Kd,PSGL-1 (Homo sapiens),47 µM
L-selectin (from UniProt P18337),Kd,GlyCAM-1 (Mus musculus),108 µM
